Reference: patent publication WO2021175954A1 (dated 2021)
Where a chain is given by its changes, count along the chain named. Values joined by “and” are separate entries in the source; they are usually repeats but may differ in a detail not shown here. Identical values can stand only once.

T1: human BTNL8/BTNL3 heterodimer expressed on HEK-293T cells (human, UniProt Q6UXE8 18-466)
T1 sequence 1: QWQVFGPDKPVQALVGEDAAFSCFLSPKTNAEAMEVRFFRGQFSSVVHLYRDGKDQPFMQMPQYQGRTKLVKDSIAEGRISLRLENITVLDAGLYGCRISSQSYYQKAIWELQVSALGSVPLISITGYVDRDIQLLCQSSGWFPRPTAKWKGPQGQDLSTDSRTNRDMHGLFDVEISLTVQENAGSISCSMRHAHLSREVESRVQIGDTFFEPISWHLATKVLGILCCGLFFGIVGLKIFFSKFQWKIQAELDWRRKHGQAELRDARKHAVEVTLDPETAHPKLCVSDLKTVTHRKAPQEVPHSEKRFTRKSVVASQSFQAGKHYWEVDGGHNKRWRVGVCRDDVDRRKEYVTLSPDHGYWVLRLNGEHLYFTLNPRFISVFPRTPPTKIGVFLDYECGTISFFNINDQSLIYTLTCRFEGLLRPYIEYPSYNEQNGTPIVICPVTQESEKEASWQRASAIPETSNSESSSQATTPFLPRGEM
T1 sequence 2: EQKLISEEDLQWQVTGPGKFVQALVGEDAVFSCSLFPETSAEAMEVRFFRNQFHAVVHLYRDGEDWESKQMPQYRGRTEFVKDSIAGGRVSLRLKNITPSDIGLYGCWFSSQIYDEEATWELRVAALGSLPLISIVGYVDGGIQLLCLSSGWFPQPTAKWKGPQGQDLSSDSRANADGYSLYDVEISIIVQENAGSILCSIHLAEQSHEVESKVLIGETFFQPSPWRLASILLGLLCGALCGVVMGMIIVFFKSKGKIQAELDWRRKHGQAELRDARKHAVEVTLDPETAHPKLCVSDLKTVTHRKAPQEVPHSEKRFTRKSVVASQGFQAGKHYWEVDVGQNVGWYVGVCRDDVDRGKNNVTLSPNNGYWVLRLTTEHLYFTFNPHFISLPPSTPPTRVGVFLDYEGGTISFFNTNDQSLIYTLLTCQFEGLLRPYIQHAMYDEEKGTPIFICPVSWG

T2: recombinant human BTNL8 protein (BLI) (human, UniProt Q6UX41 18-238, limits assumed)
T2 construct: it may be the same rhBTNL8-Fc as in the Luminex assay; also called hBTNL8; recombinant BTNL8 protein
T2 sequence: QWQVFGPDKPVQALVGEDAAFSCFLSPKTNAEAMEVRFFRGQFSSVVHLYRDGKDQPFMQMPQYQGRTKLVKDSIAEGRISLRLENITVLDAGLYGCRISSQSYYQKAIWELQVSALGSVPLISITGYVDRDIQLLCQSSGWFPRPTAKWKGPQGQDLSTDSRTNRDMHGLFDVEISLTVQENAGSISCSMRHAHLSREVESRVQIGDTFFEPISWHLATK

T3: human BTNL8 expressed on cells (HEK-BTNL8 transductants); also endogenous on CaCo-2, HL-60 and primary gut … (human, UniProt Q6UX41 18-500)
T3 construct: also called Homo sapiens butyrophilin like 8
T3 sequence: T1 sequence 1

T4: human BTNL3 with N-terminal c-Myc tag expressed on HEK-293T cells (human, UniProt Q6UXE8 18-466)
T4 construct: whole, on cells; also called HEK-BTNL3; myc-tagged BTNL3
T4 sequence: T1 sequence 2

B1: chimeric anti-BTNL8 mAb mAbX1 (antibody, V domains shown)
VH: QVQLQQSGAELARPGASVKLSCKASGYIFTSYGIGWVKQRTGQGLEWIGEVYPRNGHSYYNEKFKGKATLTADRSSSTAYMQLSSLTSEDSAVYFCARGGTGSQLDYWGQGTTLTVSS
VL: DIQMTQSPASLSASVGETVTITCRASENIYSYLAWYQQKQGKSPHLLVYNAKTLAEGVPSRFSGSGSGTQFSLRISSLQPEDFGNYYCQHHYGTYTFGGGTKLEIK
notes: also called mAbXl
B2: chimeric anti-BTNL8 mAb mAbX2 (antibody, V domains shown)
VH: EVQLQQSGAEFVRPGASVKMSCTGSGLNIEDDYMHWVKQRPEQGLEWIGRIDPANGNTKYGPKFQDKATITADTSSNTAYLQLSSLTAEDTAVYYCTRNYYDGSLYYFDYWGQGTTLTVSS
VL: QIVLTQSPAIMSASLGEEITLTCSASSSVSYMHWYQQKSGTSPKLLIYSTSNLASGVPSRFSGSGSGTFYSLTISSVEAEDAADYYCHQWSRYPYTFGGGTKLEIK
B3: chimeric anti-BTNL8 mAb mAbX4 (antibody, V domains shown)
VH: EVQLQQSGAELVRPGASVKLSCTASGFNIKDDYMHWVKQRPEQALEWIGRIDPANGNTKYVPKFQDKATITADTSSNTASLQLSSLTSEDTAVYYCARWGIYDGYYYTMDSWGQGTSVTVSS
VL: QNVLIQSPAIMSASPGEKVTITCSASSSVSYMHWFQQKPGTSPKLWIYSTSNLASGVPARFSGSGSGTSYSLTISRMEAADAATYFCQQRSRYPYTFGGGTKLEIK
B4: chimeric anti-BTNL8 mAb mAbX5 (antibody, V domains shown)
VH: EVQLQQSGAELVRPGASIKLSCTASGFNIEDDYMHWVRQRPVQGLEWIGRIDPANGNANFAPKFQDKATITADTSSNTAYLQLSSLASEDTAVYYCTREGGLYYGNSDAMDYWGQGTSVTVSS
VL: B3 VL with N2I, I5T, S26R, H33Q, F35I, A59D, A80E, F86Y, Y95R
B5: chimeric anti-BTNL8 mAb mAbX3 (antibody, V domains shown)
VH: EVQLQQSGAELVRPGASVKLSCTASGFNIKDDYMHWVKQRPEQGLEWIGRIDPANANTKYAPKFQDKATITADTSSNTAYLHLSSLTSEDSAVYYCARNYYDGSPYYFDYWGQGTTLTVSS
VL: NIVMTQSPKSMSMSVGERVTLTCKASENVVTYVSWYQQKPEQSPKLLIYGASNRYTGVPDRFTGSGSATDFTLTISSVQAEDAAGYYCHQWSRYPYTFGGGTKLEIK
B6: reference murine antibody mAb X1 (antibody, V domains shown)
VH: B1 VH
VL: B1 VL
notes: Murine monoclonal antibody, tested as hybridoma supernatant or purified from it
B7: reference murine antibody mAb X2 (antibody, V domains shown)
VH: B2 VH
VL: B2 VL
notes: as for B6
B8: reference murine antibody mAb X4 (antibody, V domains shown)
VH: B3 VH
VL: B3 VL
notes: as for B6
B9: reference murine antibody mAb X5 (antibody, V domains shown)
VH: B4 VH
VL: B3 VL with N2I, I5T, S26R, H33Q, F35I, A59D, A80E, F86Y, Y95R
notes: as for B6

Each binder was assayed against T1, human BTNL8/BTNL3 heterodimer expressed … (assay: cell-based or functional assay).

Binder	IC50/EC50 of inhibition of Vy4V51TCR reporter cell activation (NFAT-GFP, CD69, TCRV51)
B1	< 0.5 µg/mL and < 3.3 nM
B2	< 0.5 µg/mL and < 3.3 nM
B3	< 0.5 µg/mL and < 3.3 nM
B4	< 0.5 µg/mL and < 3.3 nM

What follows are binders tested against T2, recombinant human BTNL8 protein (BLI) (assay: BLI, recombinant human BTNL8).

Binder	binding result
B5	no binding

The binders below were run against T3, human BTNL8 expressed on cells … (assay: flow cytometry on HEK-BTNL8 cells, chimeric format).

Binder	EC50
B1	< 0.5 µg/mL and < 3.3 nM
B2	< 0.5 µg/mL and < 3.3 nM
B3	< 0.5 µg/mL and < 3.3 nM
B4	< 0.5 µg/mL and < 3.3 nM

These binders were tested against T1, human BTNL8/BTNL3 heterodimer expressed … (assay: flow cytometry on HEK-BTNL3/BTNL8 cells, chimeric format).

Binder	EC50
B1	< 0.5 µg/mL and < 3.3 nM
B2	< 0.5 µg/mL and < 3.3 nM
B3	< 0.5 µg/mL and < 3.3 nM
B4	< 0.5 µg/mL and < 3.3 nM

What follows are binders tested against T4, human BTNL3 with N-terminal c-Myc tag … (assay: flow cytometry on HEK-BTNL3 cells).

Binder	binding result
B6	no binding
B7	no binding
B8	no binding
B9	no binding
